From patent publication US20180009892A1

Molecular target: human ROR1 extracellular domain (ECD) protein (human) (UniProt Q01973)
Assay: ForteBio Octet, blocking of Wnt5a binding to ROR1

human ROR1 extracellular domain (ECD) protein (human), sequence (Q01973 30-406 limits assumed): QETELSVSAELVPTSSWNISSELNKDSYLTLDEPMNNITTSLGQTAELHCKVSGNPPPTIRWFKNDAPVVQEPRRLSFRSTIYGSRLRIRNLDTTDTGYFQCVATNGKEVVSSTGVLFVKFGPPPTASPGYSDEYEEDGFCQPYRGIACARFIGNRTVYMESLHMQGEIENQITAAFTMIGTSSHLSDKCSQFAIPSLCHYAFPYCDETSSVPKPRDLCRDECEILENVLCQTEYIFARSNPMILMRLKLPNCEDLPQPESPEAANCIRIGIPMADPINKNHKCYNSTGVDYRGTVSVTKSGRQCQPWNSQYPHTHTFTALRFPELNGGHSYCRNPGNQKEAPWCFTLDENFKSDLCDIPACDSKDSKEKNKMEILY

mAb Control (antibody)
Percentage Blocking: 0%
